Data published in article PMC10477855.

Biological target: UBR5 (UniProt O95071)
Test: co-IP and immunoblot, transfected cells
Conditions: reference: ACSL4 wild type; sites S447

ACSL4 (from UniProt O60488) ACSL4 S447A
binding against the reference: lost
